Source: article PMC5810440, “The Origins of Specificity in the Microcin-Processing Protease TldD/E” (Structure(London, England:1993), 2017)
Blank lines part the entries; values can stand above or below the molecule they belong to.

How the values were obtained:
[1] = target: T1, TldD/E (purified TldD and TldE combined) (Escherichia coli, UniProt P0AGG8); test: inhibition of angiotensin II hydrolysis; type: biochemical; conditions: substrate angiotensin II
T1 construct: with Metalloprotease PmbA
T1 sequence (P0AGG8 1-481): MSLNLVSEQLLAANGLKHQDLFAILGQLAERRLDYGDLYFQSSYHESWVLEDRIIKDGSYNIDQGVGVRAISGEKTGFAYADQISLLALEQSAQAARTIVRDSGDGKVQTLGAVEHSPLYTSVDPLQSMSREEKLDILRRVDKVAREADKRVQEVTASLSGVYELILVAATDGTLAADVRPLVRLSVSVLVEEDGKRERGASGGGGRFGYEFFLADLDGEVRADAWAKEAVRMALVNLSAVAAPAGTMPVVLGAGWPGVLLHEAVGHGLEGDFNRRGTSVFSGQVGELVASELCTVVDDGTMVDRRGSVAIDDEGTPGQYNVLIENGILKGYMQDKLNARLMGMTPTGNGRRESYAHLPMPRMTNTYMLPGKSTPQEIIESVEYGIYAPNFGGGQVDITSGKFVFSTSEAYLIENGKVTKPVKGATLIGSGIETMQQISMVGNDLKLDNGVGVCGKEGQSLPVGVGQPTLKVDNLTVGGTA
T1 sequence (P0AFK0 1-450 partner): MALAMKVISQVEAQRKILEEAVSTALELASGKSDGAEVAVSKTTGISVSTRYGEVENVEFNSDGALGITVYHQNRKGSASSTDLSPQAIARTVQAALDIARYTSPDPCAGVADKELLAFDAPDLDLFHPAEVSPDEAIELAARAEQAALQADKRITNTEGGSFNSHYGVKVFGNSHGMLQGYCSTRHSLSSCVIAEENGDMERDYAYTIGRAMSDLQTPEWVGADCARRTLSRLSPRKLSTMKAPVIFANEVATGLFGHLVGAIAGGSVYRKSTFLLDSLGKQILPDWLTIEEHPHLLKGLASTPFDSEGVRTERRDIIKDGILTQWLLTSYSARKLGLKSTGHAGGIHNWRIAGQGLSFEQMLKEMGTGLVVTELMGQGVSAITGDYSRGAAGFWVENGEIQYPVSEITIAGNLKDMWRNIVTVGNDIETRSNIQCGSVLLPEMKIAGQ

[2] = target: N-terminally 6xHis-tagged E. coli TldD (pET28b, purified separately) (E. coli) (UniProt P0AGG8); test: AUC; sedimentation equilibrium, 0.2 mg/ml protein in 50 mM Tris-HCl pH 7.5, 100 mM NaCl, 10000 rpm, 20 C, single species model
[3] = target: T2, E. coli TldD His262Ala mutant (subunit of the TldD^H262A/E complex) (E. coli, UniProt P0AGG8 1-481, H262A | Gly to Asp at position 401); test: crystal structure; X-ray structures of the co-purified TldD/E heterodimer (wild type and TldD mutants), two heterodimers in the asymmetric unit; condition 1 (phosphate, PEG 3350) or condition 2 (PEG 1500, MMT pH 8.0), 20 C; conditions: both partners purified
T2 construct: TldD of E. coli MG1655 with H262A; Gly401 to Asp was introduced into all the models; source: E. coli, mutant protein complex with TldE
T2 sequence (looked up): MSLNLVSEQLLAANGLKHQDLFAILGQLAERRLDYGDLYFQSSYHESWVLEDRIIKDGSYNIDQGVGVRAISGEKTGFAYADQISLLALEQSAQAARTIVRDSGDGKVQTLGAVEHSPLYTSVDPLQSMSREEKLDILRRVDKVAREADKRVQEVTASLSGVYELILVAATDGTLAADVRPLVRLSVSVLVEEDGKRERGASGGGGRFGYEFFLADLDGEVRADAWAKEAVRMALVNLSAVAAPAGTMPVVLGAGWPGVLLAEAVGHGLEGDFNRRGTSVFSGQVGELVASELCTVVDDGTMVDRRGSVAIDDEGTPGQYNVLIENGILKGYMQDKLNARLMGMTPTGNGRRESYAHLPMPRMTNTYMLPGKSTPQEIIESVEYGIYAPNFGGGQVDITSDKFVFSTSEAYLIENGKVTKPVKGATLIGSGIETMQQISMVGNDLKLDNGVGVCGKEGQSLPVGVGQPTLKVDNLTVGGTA

[4] = target: T3, E. coli TldD Glu263Ala mutant (subunit of the TldD^E263A/E complex) (E. coli, UniProt P0AGG8 1-481, E263A | Gly to Asp at position 401); test: as above; conditions: both partners purified
T3 construct: TldD of E. coli MG1655 with E263A; Gly401 to Asp was introduced into all the models; The methods say only that the mutants were made by overlap extension PCR and 'cloned and produced as described above'; also called Glu263Ala TldD mutant; source: E. coli, mutant protein complex with TldE
T3 sequence (looked up): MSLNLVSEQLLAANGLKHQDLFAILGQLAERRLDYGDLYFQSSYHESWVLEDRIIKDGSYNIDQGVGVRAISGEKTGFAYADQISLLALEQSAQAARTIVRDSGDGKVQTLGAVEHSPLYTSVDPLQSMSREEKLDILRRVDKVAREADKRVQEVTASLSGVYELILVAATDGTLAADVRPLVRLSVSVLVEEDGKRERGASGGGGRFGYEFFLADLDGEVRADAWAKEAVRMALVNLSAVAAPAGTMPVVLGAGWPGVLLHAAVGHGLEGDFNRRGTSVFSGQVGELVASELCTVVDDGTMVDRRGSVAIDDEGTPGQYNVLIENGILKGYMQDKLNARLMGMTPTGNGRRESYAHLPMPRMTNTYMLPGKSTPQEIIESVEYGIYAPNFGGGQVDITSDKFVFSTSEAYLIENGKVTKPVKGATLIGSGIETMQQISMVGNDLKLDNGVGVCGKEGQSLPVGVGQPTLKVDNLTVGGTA

[5] = target: T4, His-tagged E. coli TldD co-expressed with untagged TldE (pColA-Duet, MCS I) (E. coli, UniProt P0AGG8 1-481, Gly to Asp at position 401); test: pull-down; Ni affinity chromatography of extracts of E. coli co-overproducing His-tagged TldD and untagged TldE; wash ~20 CV with 1 M NaCl, 50 mM imidazole, 0.1% Triton X-100; elution with 250 mM imidazole; conditions: partners not purified
T4 construct: TldD of E. coli MG1655, cloned into MCS I of pColA-Duet (BamHI/HindIII); residues 2-481 seen in the crystals; Zn in the active site (grown with 50 uM ZnCl2 for crystals); also called TldD-His; His-tagged TldD; source: E. coli BL21 (DE3) Gold, co-overproduced with TldE
T4 sequence (looked up): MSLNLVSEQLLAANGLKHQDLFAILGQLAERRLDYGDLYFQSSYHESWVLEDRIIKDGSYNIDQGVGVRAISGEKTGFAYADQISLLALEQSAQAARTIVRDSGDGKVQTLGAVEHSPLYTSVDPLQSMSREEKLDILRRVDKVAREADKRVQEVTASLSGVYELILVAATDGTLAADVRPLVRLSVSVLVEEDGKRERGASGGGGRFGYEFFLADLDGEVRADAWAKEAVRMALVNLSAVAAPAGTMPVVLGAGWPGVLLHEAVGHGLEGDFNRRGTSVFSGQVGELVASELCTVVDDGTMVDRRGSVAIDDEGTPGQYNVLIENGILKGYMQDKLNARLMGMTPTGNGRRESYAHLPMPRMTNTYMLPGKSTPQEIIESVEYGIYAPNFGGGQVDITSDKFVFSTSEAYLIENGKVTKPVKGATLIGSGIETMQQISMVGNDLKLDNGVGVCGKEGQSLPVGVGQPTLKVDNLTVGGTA

[6] = target: the molecule itself; test: AUC; sedimentation equilibrium, 0.2 mg/ml protein in 50 mM Tris-HCl pH 7.5, 100 mM NaCl, 10000 rpm, 20 C, single species model

Molecule: CCCCC[C@H](CC(=O)NO)C(=O)N[C@H](C(=O)N1CCC[C@H]1CO)C(C)C [Actinonin]
inhibition of angiotensin II hydrolysis [1]: actinonin (deformylase inhibitor) efficiently prevented angiotensin II hydrolysis by TldD/E

B2: N-terminally 6xHis-tagged E. coli TldE (pET28b, purified separately) (natural protein, UniProt P0AFK0 1-450, looked up)
chain: MALAMKVISQVEAQRKILEEAVSTALELASGKSDGAEVAVSKTTGISVSTRYGEVENVEFNSDGALGITVYHQNRKGSASSTDLSPQAIARTVQAALDIARYTSPDPCAGVADKELLAFDAPDLDLFHPAEVSPDEAIELAARAEQAALQADKRITNTEGGSFNSHYGVKVFGNSHGMLQGYCSTRHSLSSCVIAEENGDMERDYAYTIGRAMSDLQTPEWVGADCARRTLSRLSPRKLSTMKAPVIFANEVATGLFGHLVGAIAGGSVYRKSTFLLDSLGKQILPDWLTIEEHPHLLKGLASTPFDSEGVRTERRDIIKDGILTQWLLTSYSARKLGLKSTGHAGGIHNWRIAGQGLSFEQMLKEMGTGLVVTELMGQGVSAITGDYSRGAAGFWVENGEIQYPVSEITIAGNLKDMWRNIVTVGNDIETRSNIQCGSVLLPEMKIAGQ
notes: 50.5 kDa with the tag; also called His-TldE; PmbA; source: E. coli BL21 (DE3) Gold, purified (Ni-NTA)
stoichiometry N [6]: 2

Next, values leading:

stoichiometry N [2]: 2
Molecule: N-terminally 6xHis-tagged E. coli TldD (pET28b, purified separately) (from UniProt P0AGG8 1-481) (natural protein)

binding result [3]: binds
binding result [4]: binds
binding result [5]: binds
B1: untagged E. coli TldE co-expressed with His-tagged TldD (pColA-Duet, MCS II) (natural protein, UniProt P0AFK0 1-450, looked up)
chain: MALAMKVISQVEAQRKILEEAVSTALELASGKSDGAEVAVSKTTGISVSTRYGEVENVEFNSDGALGITVYHQNRKGSASSTDLSPQAIARTVQAALDIARYTSPDPCAGVADKELLAFDAPDLDLFHPAEVSPDEAIELAARAEQAALQADKRITNTEGGSFNSHYGVKVFGNSHGMLQGYCSTRHSLSSCVIAEENGDMERDYAYTIGRAMSDLQTPEWVGADCARRTLSRLSPRKLSTMKAPVIFANEVATGLFGHLVGAIAGGSVYRKSTFLLDSLGKQILPDWLTIEEHPHLLKGLASTPFDSEGVRTERRDIIKDGILTQWLLTSYSARKLGLKSTGHAGGIHNWRIAGQGLSFEQMLKEMGTGLVVTELMGQGVSAITGDYSRGAAGFWVENGEIQYPVSEITIAGNLKDMWRNIVTVGNDIETRSNIQCGSVLLPEMKIAGQ
notes: TldE (PmbA) of E. coli MG1655, cloned into the second MCS of pColA-Duet (NdeI/XhoI), untagged; residues 6-450 seen in the crystals; also called PmbA; TldE subunit; source: E. coli BL21 (DE3) Gold, co-overproduced with His-tagged TldD
